Measured values taken from the nanobody polyreactivity screen of Harvey et al. (2022).

Experiment: yeast display, Sf9 membrane polyspecificity reagent, FACS + sequencing; frameworks hold sequencing errors
Procedure, shortened: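 Using colony PCR, genes from sorted yeast display clones were amplified, then sequenced on MiSeq at 2 × 250 and filtered by CDR length. The clones had been stained with 10% biotinylated, detergent-solubilized Sf9 membrane reagent for 1 hour at 4 °C and sorted by FACS into low and high (top ~1%) gates on anti-HA and streptavidin fluorescence. Polyreactivity labels come from the gate of origin.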

Question: For “QVQLVESGGGLVQAGGSLRLSCAASGITFGDNTMGWYRQAPGKERELVAAITYSSTSTYYADSVKGRFTISRDNPKNTVYLQMNSLKPEDTAVYYCAAEGPVDVVSTDYDYWGQGTQVTVSS”, which “polyreactivity (PSR sort gate)” value is on record?
Answer: low polyreactivity

Question: For “QVQLVESGGGLVQAGGSLRLSCAASGITFGDYAMGWNRQAPGKERELVAGINWSGDGTYYADSVKGRFTISRDNAKITVYLQMYSLKPEDTAVYYCAAETFYDYGGYDYWGQVTQVTVSS”, which “polyreactivity (PSR sort gate)” value is on record?
Answer: low polyreactivity

Question: Which “polyreactivity (PSR sort gate)” value does the source give for “QVQLVESGGGLVQAGGSLRLSCAASGITFGDYTMGWYRQAPGKERELVAGINWSGDGTYYADSVKGRFTISRDNAKNTVYLQMNSLKPEDTAVYYCAAETFYDYGGYDYWGQGTQVTVSS” here?
Answer: low polyreactivity

Question: For “QVQLVESGGGLVQAGGSLRLSCAASGITFGNYAMGWYRQAPGKERELVAAISQSSGRTYYADSVKGRFTISRDNAKNTVYLQMNSLKPEDTAVYYCAARTRGSSRGDYDYWGQGTQVTVSS”, which “polyreactivity (PSR sort gate)” value is on record?
Answer: high polyreactivity

Question: Which “polyreactivity (PSR sort gate)” value does the source give for “QVQLVESGGGLVQAGGSLRLSCAASGITFGPNAMGWYRQAPGKERELVAAISWRGGSTYYADSVKGRFTISRDYAKNTVYLQMNSLKPEDTAVYYCAKVQIPASYIRYDYWGQGTQVTVSS” here?
Answer: low polyreactivity

Question: For “QVQLVESGGGLVQAGGSLRLSCAASGITFGPYAMGWYRQAPGKERELVAAISSGGRTNYADSVKGRFTISRDNAKNTVYLQMNSLKPEDTAVYYCAARFAYFREYGTYYYWGQGTQVTVSS”, which “polyreactivity (PSR sort gate)” value is on record?
Answer: high polyreactivity

Question: For “QVQLVESGGGLVQAGGSLRLSCAASGITFGRDAMGWYRQARGKERELVAAISRGSGSTYSADSVKGRFTISRDNAKNTVYLQMHSLKPEDTAVYYCGKVVRVGMGYWGQGTQVTVSS”, which “polyreactivity (PSR sort gate)” value is on record?
Answer: high polyreactivity

Question: For “QVQLVESGGGLVQAGGSLRLSCAASGITFGRNTMGWSRQAPGKERELVAAIDSGGNTYADSVKGRFTISRDNAKNTVYLQMNSLKPEDTAVYYCAVDGGEFSSYGYWGQGTQVTVSS”, which “polyreactivity (PSR sort gate)” value is on record?
Answer: low polyreactivity

Question: With “QVQLVESGGGLVQAGGSLRLSCAASGITFGRNTMGWYRQAPGKERELVAAIDSGGNTYADSVKGRFTISRDNAKNTVYLQMNSLKPEDTAVYYCATVADEPRAYSGYEESDYWGQGTQVTVSS” as the sequence, how does the “polyreactivity (PSR sort gate)” value read?
Answer: low polyreactivity

Question: With “QVQLVESGGGLVQAGGSLRLSCAASGITFGRNTMGWYRQAPGKERELVAAIDSGGNTYADSVKGRFTISRDNAKNTVYLQMNSLKPEDTAVYYCDVDGGEFSSYGYWGQGTLVTVSS” as the sequence, how does the “polyreactivity (PSR sort gate)” value read?
Answer: low polyreactivity

Question: Which “polyreactivity (PSR sort gate)” value does the source give for “QVQLVESGGGLVQAGGSLRLSCAASGITFGRYAMGSYRQPPGKEREFVAAISWSGGSTYYADSVKGRFTISLDNATNPVYLQINSLKPEDTAVYYCAVEWYYTSYHIRVYRDNYWGQGTQVTVSS” here?
Answer: high polyreactivity

Question: For “QVQLVESGGGLVQAGGSLRLSCAASGITFGRYAMGWYRQAPGKERELVAAISRGSGSTYYADSVKGRFTISRDNAKNTVYLQMNSLKPEDTAVYYCAKVVRVGMGYWGQGTQVTVSS”, which “polyreactivity (PSR sort gate)” value is on record?
Answer: high polyreactivity

Question: Which “polyreactivity (PSR sort gate)” value does the source give for “QVQLVESGGGLVQAGGSLRLSCAASGITFGTYAMGWYRQAPGKERELVAAISQSSGRTYYADSVKGRFTISRDNAKNSVYLQMNSLKPEDTAVYYCADRTRGSSRGDYDYWGQGTQVTVSS” here?
Answer: high polyreactivity

Question: With “QVQLVESGGGLVQAGGSLRLSCAASGITFGVNTMGWYRQAPGKERELVAAITWRGGSTYYADSVKGRFTISRDNAQNTVYLQMNSLIPEDTAVYYCAAQPIWPGGQELDYWGQGTQVTVSS” as the sequence, how does the “polyreactivity (PSR sort gate)” value read?
Answer: low polyreactivity

Question: With “QVQLVESGGGLVQAGGSLRLSCAASGITFGYYAMGWSRQAPGKERELVAAISWSGGRTYYADSVKGRFTMSRDNAKNTVYLQMNSLKPEDTAVYYCAADYWYYRGGYPMDYWGQGTQVTVSS” as the sequence, how does the “polyreactivity (PSR sort gate)” value read?
Answer: high polyreactivity

Question: With “QVQLVESGGGLVQAGGSLRLSCAASGITFGYYTMGWYRQAPGKEREFDAAISSTGGTYYADSVKGRFTISRDNAQNTVYLQMNSLKPEDTAVYYCAATFIQVVVNVQLYDYDYWGQGTQVTVSS” as the sequence, how does the “polyreactivity (PSR sort gate)” value read?
Answer: low polyreactivity

Question: With “QVQLVESGGGLVQAGGSLRLSCAASGITFHANAMGWNRQARGKERELVPAINWSGGSTYYADSVKGRFTISRDNAKNTVYLQMNSLKPEDTAVYYCAAELWGLFDYWGQGTQVTVSS” as the sequence, how does the “polyreactivity (PSR sort gate)” value read?
Answer: low polyreactivity

Question: With “QVQLVESGGGLVQAGGSLRLSCAASGITFHSYAMGWYRQAPGKERELVAGISSGGSTNYADSVKGRFTISRDNAKNTVYLQMNSLKPEDTAVYYCAVLNHRVDSVLTRYYYWGQGTQVTVSS” as the sequence, how does the “polyreactivity (PSR sort gate)” value read?
Answer: low polyreactivity

Question: For “QVQLVESGGGLVQAGGSLRLSCAASGITFILYDMGWYRQAPGKERELVAGITSGDGDSTYYADSVKGRFTISRDNAKNTVYLQMNSLKPEDTAVYYCAADFTVGYYREYYYWGQGTQVTVSS”, which “polyreactivity (PSR sort gate)” value is on record?
Answer: low polyreactivity

Question: Which “polyreactivity (PSR sort gate)” value does the source give for “QVQLVESGGGLVQAGGSLRLSCAASGITFIRYAMGWYRQAPGKERELVAAISKDGDSTYYADSVKGRFTISRDNAKNTVYLQMNSLKPEDSGVYYCAAQRYSKALYNYWGQGTQVTVSS” here?
Answer: high polyreactivity

Question: Which “polyreactivity (PSR sort gate)” value does the source give for “QVQLVESGGGLVQAGGSLRLSCAASGITFIRYAMGWYTQAPGKERELVAAIDRSGGSTYYADSVKGRFTISRDTAKNTVYLQMNSLKPEDTAVYYCAARRVRGLDYWGQGTQVTVSS” here?
Answer: high polyreactivity

Question: With “QVQLVESGGGLVQAGGSLRLSCAASGITFKAYAMGWYRQAPGKERELVAAITGSGGRTYYADSVKGRFTISRDNAKNTVYLQMNSLKPEDTAVYYCAKTSSWYLRPKYYYWGQGTQVTVSS” as the sequence, how does the “polyreactivity (PSR sort gate)” value read?
Answer: high polyreactivity

Question: With “QVQLVESGGGLVQAGGSLRLSCAASGITFKFYAMGWYRQAPGKERELVAVITSGGSTYYADSVKGRFTISRDNAKNTVYLQMTSLKPEDTAVFYCASGGNGLYRAYPFYYWGQGTQVTVSS” as the sequence, how does the “polyreactivity (PSR sort gate)” value read?
Answer: high polyreactivity

Question: With “QVQLVESGGGLVQAGGSLRLSCAASGITFKGYTMGWYRQAPGKERELVATISRGGRTYAVSVKGRFTISRDNAKNTVYLQMNSLKPEDTAVYYCAADKYWAQNDYWGQGTQVTVSS” as the sequence, how does the “polyreactivity (PSR sort gate)” value read?
Answer: low polyreactivity

Question: With “QVQLVESGGGLVQAGGSLRLSCAASGITFKPYGMGWYRQAPGKERELVATISWSGGSTNYADSVKGRFTISRDNAKNTVYLQMNILKPEDTAVYYCAATSYSHTEIRYDYWGQGTQVTVSS” as the sequence, how does the “polyreactivity (PSR sort gate)” value read?
Answer: low polyreactivity

Question: With “QVQLVESGGGLVQAGGSLRLSCAASGITFKRYAMGWYRQAPRKERELVAAITTSGGSTYYADSVKGRFTNSRDNAKNTVYLLMNSLKPEDTAVNYCNAEDYWGKYYYWGQGTQVTVSS” as the sequence, how does the “polyreactivity (PSR sort gate)” value read?
Answer: low polyreactivity

Question: With “QVQLVESGGGLVQAGGSLRLSCAASGITFKRYTMGWYRQAPGKERELVAANSRSGGSTYYADSVKGRFTISRDTAKNTVYLQMNSLKPEDTAVYYCAAAVGGYNVAYDYWGQGTQVTVSS” as the sequence, how does the “polyreactivity (PSR sort gate)” value read?
Answer: high polyreactivity

Question: Which “polyreactivity (PSR sort gate)” value does the source give for “QVQLVESGGGLVQAGGSLRLSCAASGITFKSNAMGWYRQAPGKERELVAAISRRASSTYYADSVKGRFTISRDNAKNTVYLQMNSLKPEDTAVYYCAARSTVLATVSYPFGRYYWGQGTQVTVSS” here?
Answer: high polyreactivity

Question: With “QVQLVESGGGLVQAGGSLRLSCAASGITFKYYAMGWYRQAPGKERELVAAISRSGGTTYYADSVKGRFTISRDNAKNTVYLQMNSLKPEDTAVYYCNKYTHYYDYDYWGQGTQVTVSS” as the sequence, how does the “polyreactivity (PSR sort gate)” value read?
Answer: high polyreactivity

Question: Which “polyreactivity (PSR sort gate)” value does the source give for “QVQLVESGGGLVQAGGSLRLSCAASGITFKYYTMGWYRQAPGKERELVAAITADTGTTYYADSVKGRFTISRDNAKNTVYLQMNSLKPEDTAVYYCATRDVFYDDDYWGQGTQVTVSS” here?
Answer: high polyreactivity

Question: For “QVQLVESGGGLVQAGGSLRLSCAASGITFKYYTMGWYRQAPGKERELVAAITSRAGRTYADSVKGRFTISRDNAKNTVYLQMNSLKPEDTAVYYCARRVDYPYAYDYWGQGTQVTVSS”, which “polyreactivity (PSR sort gate)” value is on record?
Answer: high polyreactivity

Question: With “QVQLVESGGGLVQAGGSLRLSCAASGITFLGNAMGWYRQAPGKERELVAAISASGGRTYYADSVKGRFTISRDNAKNTVYLQMNSLKPEDTPVYYCAAASKPWYYYWGQGTQVTVSS” as the sequence, how does the “polyreactivity (PSR sort gate)” value read?
Answer: high polyreactivity

Question: With “QVQLVESGGGLVQAGGSLRLSCAASGITFLHYAMGWYRQAPGKERELVARITYSGSSTYYADSVKGRFTISRDNAKNTVYLQMNSVKPEDTAVYYCNARASWGRWSRTGTPRYDYWGQGTQVTVSS” as the sequence, how does the “polyreactivity (PSR sort gate)” value read?
Answer: high polyreactivity

Question: For “QVQLVESGGGLVQAGGSLRLSCAASGITFLKNAMGWYRQAPGKERELVAAISSSGGSTYYADSVKGRFTISRDNAKNTVYLQMNSLKPEDTAVYYCAALSVGKRYRYEYWGQGTQVTVSS”, which “polyreactivity (PSR sort gate)” value is on record?
Answer: high polyreactivity

Question: Which “polyreactivity (PSR sort gate)” value does the source give for “QVQLVESGGGLVQAGGSLRLSCAASGITFLSNAMGWYRQAPGKERELVAAISRGGGTTYYADSVKGRFTISRDIAKNTVYLQMNSLKPEDTAVYYCAKGRCSSSRFDYWGQVTQVTVSS” here?
Answer: high polyreactivity

Question: For “QVQLVESGGGLVQAGGSLRLSCAASGITFLYYAMGGYRQAPGKERELVAAITSGGSTYYADSVKGRFTISRDNAKNTVYLQMNSLKPEDTAVYYCAAGTYDGGYHYDYWGEGTQVTVSS”, which “polyreactivity (PSR sort gate)” value is on record?
Answer: high polyreactivity

Question: Which “polyreactivity (PSR sort gate)” value does the source give for “QVQLVESGGGLVQAGGSLRLSCAASGITFLYYAMGWYRQAPGKERELVAAISGGGASTYYADSVKGRFTSSRDNAKNTVYLQMNSLKPEDTAVYDCAAGYRDFFRARFGYWGQGTQVTVAS” here?
Answer: high polyreactivity

Question: For “QVQLVESGGGLVQAGGSLRLSCAASGITFLYYAMGWYRQAPGKERELVAAITRGGRTNYADSVKGRFTISRDNAKNTVYLQMNSLKPEDTAVYYCAARRSRPTYYSTGVNYWGQGTQVTVSS”, which “polyreactivity (PSR sort gate)” value is on record?
Answer: high polyreactivity

Question: Which “polyreactivity (PSR sort gate)” value does the source give for “QVQLVESGGGLVQAGGSLRLSCAASGITFLYYAMGWYRQAPGKERELVAGISGTGGRTYYADSVKGRFTISRDNAKNTVYLQMNSLKPEDTAVYYCAARRTTWGYGYWGQGTQVTVSS” here?
Answer: high polyreactivity

Question: Which “polyreactivity (PSR sort gate)” value does the source give for “QVQLVESGGGLVQAGGSLRLSCAASGITFNDYALGWYRQAPGKERELDAAIDWSGGRTYYADSVKGRFTISRDNAKNTVYLQMNSLKPEDTAVYYCAAVLYSRLFWYRLDYWGQGTQVTVSS” here?
Answer: low polyreactivity

Question: Which “polyreactivity (PSR sort gate)” value does the source give for “QVQLVESGGGLVQAGGSLRLSCAASGITFNHYAMGWSRQAPGKERELVAVISRTVGSTYYADSVKGRFTISRDNAKNTVYLQMNSLKPEDTAVYYCAARGPRPDGYSGRSDYWGQGTQVTVSS” here?
Answer: high polyreactivity
